According to article PMC7374964 (BMC Biology, 2020):

How the values were obtained:
Details in all cases: one partner purified
[1] = biological target: T1, HIV-1 ADA Env on CEM-NKR cells infected with the Nef- and Vpu-defective virus (NL4.3 GFP ADA/Nef-Vpu-), with … (HIV-1 ADA (Env clone not named); Homo …, UniProt Q6TAN8;P01730, strain); assay: flow cytometry on cells
T1 construct: also called ADA/N-U- infected cells; pNL43/ADA/N-U- infected CEM-NKR target cells; copies: 3 + 3 +

[2] = biological target: T2, HIV-1 JRFL Env on free pseudovirus particles (HIV-1 JRFL, UniProt Q75760, strain); assay: fluorescence correlation spectroscopy (FCS)
T2 construct: copies: 3 + 3

[3] = biological target: T3, HIV-1 BaL Env on free pseudovirus particles (HIV-1 BaL (Env clone not named), UniProt Q2MKA8, strain); assay: fluorescence correlation spectroscopy (FCS)
T3 construct: copies: 3 + 3

[4] = biological target: T4, HIV-1 BaL Env on pseudovirus particles treated with the CD4 mimetic peptide M48U1 (HIV-1 BaL (Env clone not named), UniProt Q2MKA8, strain); assay: fluorescence correlation spectroscopy (FCS)
T4 construct: source: HIV-1 BaL pseudoviruses [72] treated for 90 min at 37 °C with 200 ug/ml of M48U1; copies: 3 + 3 +

[5] = biological target: T5, HIV-1 JRFL Env on pseudovirus particles treated with the CD4 mimetic peptide M48U1 (HIV-1 JRFL, UniProt Q75760, strain); assay: fluorescence correlation spectroscopy (FCS)
T5 construct: copies: 3 + 3 +

Measured: binding result

B1: mAb X5 (antibody, V domains shown)
VH: VQLLEQSGAEVKKPGSSVQVSCKASGGTFSMYGFNWVRQAPGHGLEWMGGIIPIFGTSNYAQKFRGRVTFTADQATSTAYMELTNLRSDDTAVYYCARDFGPDWEDGDSYDGSGRGFFDFWGQGTLVTVSS
VL: ELVLTQSPGTLSLSAGERATLSCRASQSVSSGSLAWYQQKPGQAPRLLIYGASTRATGIPDRFSGSGSGTDFTLTIGRLEPEDLAVYYCQQYGTSPYTFGQGTKLEIK
notes: source: generated in house [15]
binds: [1] | [2] | [3] | [4] | [5]
